Results on 18 molecules are retold here after publication PMC9170038, “Crowdsourced RNA design discovers diverse, reversible, efficient, self-contained molecular switches”.

What all share (conditions): chain copies: 2; label: tethered by stalled RNA polymerase
For data set [1], the target named is T1, MS2 coat protein, dlFG mutant (Escherichia phage MS2, UniProt P03612, del68-81insG). In words: 4 mM Mg2+; no ligand; RNA-MaP array; 100 mM Tris-HCl pH 7.5, 80 mM KCl, 4 mM MgCl2, 0.1 mg/mL BSA, 1 mM DTT, 0.01 mg/mL yeast tRNA, 0.01% Tween-20; protein 1.5 nM to 3 uM; 37 C (Table S3).
In data set [2] the target is T1, MS2 coat protein, dlFG mutant. In words: 4 mM Mg2+; FMN 200 uM; RNA-MaP array; 100 mM Tris-HCl pH 7.5, 80 mM KCl, 4 mM MgCl2, 0.1 mg/mL BSA, 1 mM DTT, 0.01 mg/mL yeast tRNA, 0.01% Tween-20; protein 1.5 nM to 3 uM; 37 C (Table S3).
The target is the same in data set [3]. The data set is described as follows: 4 mM Mg2+; miR-208a RNA 100 nM (AU…UUGU); RNA-MaP array; 100 mM Tris-HCl pH 7.5, 80 mM KCl, 4 mM MgCl2, 0.1 mg/mL BSA, 1 mM DTT, 0.01 mg/mL yeast tRNA, 0.01% Tween-20; protein 1.5 nM to 3 uM; 37 C (Table S3).
Data set [4] shares this target. In words: 4 mM Mg2+; theophylline 2 mM; RNA-MaP array; 100 mM Tris-HCl pH 7.5, 80 mM KCl, 4 mM MgCl2, 0.1 mg/mL BSA, 1 mM DTT, 0.01 mg/mL yeast tRNA, 0.01% Tween-20; protein 1.5 nM to 3 uM; 37 C (Table S3).

B1: Eterna 6417730 (Small Loop Same State NG 3) (ssRNA)
RNA: ACAUGAGGAUCUCCCAUGUAAAAUUAGGAUAUAUAACUGCACAUGAGGAUCACCCAUGUUUAACCGUAGAAGGGAUAAAUAAUU
Molecule B1 yielded a Kd in data set [1] of 1100 nM.

B2: Eterna 6458016 (Inverted Same State NG 1) (ssRNA)
RNA: CGCUACACCCAGAAGGACAUGAGGAUCACCCAUGUAGGAUAUGGGAGACACAGUCCCAUGUAGAGAAAUUACGCUAGUGUAGCG
On to B2, for which the Kd in data set [1] stood at 166 nM.

B3: Eterna 7695377 (Same State - Theophylline A) (ssRNA)
RNA: UCUUAACUAAAAUAAUGGGAUACCAGUGAUACCAGCCAUAUGCAGGGCCCUUGGCAGCACCCUUGGCAGCCUCGAGUGAUGUUCG
For the molecule B3, in data set [1], the Kd was over 3000 nM.

B4: Eterna 6429508 (Inverted Exclusion NG 3) (ssRNA)
RNA: GGGUGCCCUGCAGAAGCGACAUGAGGAUCACCCAUGUAACGUAGAAGGGCCCGGAACUAAGGUGGGCAGGAUAUACUGUUAGGU
In data set [2], B4 had a Kd of 7.24 nM.

B5: Eterna 5998949 (Sensor, turn-off variant 1) (ssRNA)
RNA: UUUCCGGCGCGGGUUUUUUACAUGAGGAUCACCCAUGUCCUCUGCUUGUCUUGUCUUGGGCUUUUUUUGGGUUCGGG
Molecule B5 yielded a Kd in data set [1] of 798 nM.

B6: Eterna 1521 (Same State - FMN A) (ssRNA)
RNA: CGUAAGGAUUGACGACUGCAGAGCAAAAUAAAGGAUAUCGCAGCGUCGAGAAGGUUAUCGUGCGCCAGUGAUGUUGGCGGUAGUC
Turning to B6, the dissociation constant (Kd) in data set [1] is over 3000 nM.

B7: Eterna 6429692 (Inverted Same State NG 1) (ssRNA)
RNA: AUCAUGCUCAAGAAGGACAUGAGGAUCACCCAUGUAGGAUAUUGGGCGGUCACUUCUAGCUUGUGUGUAUCUGAAUACUCCAGG
In the case of B7, in data set [2], binding was put at a Kd of 7.54 nM.

B8: Eterna 1174 (Exclusion - Theophylline B) (ssRNA)
RNA: GCUGUCCAGUUCGAUACCAGAGUUAUCGCACUGUAGUGAUAAAGUGAUGUUUUAUCAGUCCUCCCUUGGCAGCGAUGCCCGGCUG
As for B8, in data set [1], the Kd is over 3000 nM.

B9: Eterna 7709687 (Same State - Tryptophan B) (ssRNA)
RNA: UAUUAAGUGACGGCCGCCACUAUGGUGAUUUAUUUGUUUGAGUGAUGUUUUGAUGUUUGAUUUUGUAGGACCGGGUUAUGUGUUA
B9: the Kd in data set [1] was over 3000 nM.

B10: Eterna 7705565 (Exclusion - FMN A) (ssRNA)
RNA: AGACUACCACACUGUCAAUAGACAGUGAACUAGGAUAUGCUGAUAAGCAGAAGGAGUGAUGUUCCUAAAGGUAGUCAAAUAUAAU
In data set [1], B10 showed a Kd of over 3000 nM.

B11: Eterna 5988416 (Sensor, turn-off variant 1) (ssRNA)
RNA: UCACAAGCUGUGGGUGGUGACAUGAGGAUCACCCAUGUUUUGCUCGUCUUGUGCCGGGCCCGGCGCCCGGGCCCGGC
The molecule B11 gave a Kd in data set [1] of 1080 nM.

B12: Eterna 8125 (Exclusion 4) (ssRNA)
RNA: GUGAAGUGAGGAUAUACGAGAGAGGCUGAACCGGACGAGAAGUAGAAGGCACAUGAGGAUCACCCAUGUACGGG
Regarding B12, the Kd in data set [1] came out at 208 nM.

B13: Eterna 10033 (Sensor v3, turn-off variant 2) (ssRNA)
RNA: ACUAGCGAAAUGCUCGUCUUAUUUUUGUAGAGGUUCUAAACAUGAGGAUCACCCAUGUAGUGGUUUUUGUGGAGGUA
Turning to B13, the Kd in data set [3] amounted to 265 nM.

B14: Eterna 9 (K4-7bp_control) (ssRNA)
RNA: UUUCAGGGCAGUGAUGUUGCCCUCUUU
Consider B14, for which the Kd in data set [1] is over 3000 nM.

B15: Eterna 1188 (Exclusion - Theophylline B) (ssRNA)
RNA: AGCUGCCGAAUAGAUACCAGUGUCUUUAGUGAUGUUUCAGAGCUGGCACGAUCAGAAGGUCACCCUUGGCAGCUAGUGCCAGCGU
Molecule B15 had a Kd in data set [1] of over 3000 nM.

B16: Eterna 1257 (Exclusion - Tryptophan B) (ssRNA)
RNA: CUGUUUUAGUCGGCCGCCACUGCAAGUGAUGUUUGGAGUAUUAUGCCGUUUCUGUCCAUUGAACCCAGGACCGGGACCGGAUCGU
B16 returned a Kd in data set [1] of over 3000 nM.

B17: Eterna 7720201 (Exclusion - Theophylline B) (ssRNA)
RNA: CCUAUCUCAUACGAUACCAGUCUACGAUAUUUUAUCGUUGCCAACACCGAGUGAUGUUCGGACCCUUGGCAGCGUAUGGGAUAGG
For the molecule B17, the Kd in data set [1] was over 3000 nM.

B18: Eterna 7634493 (Same State - Theophylline A) (ssRNA)
RNA: ACAUGAGGAUCACCCAUGUCUGCCACUGAUACCAGCGGAAGAAAACGCCCUUGGCAGCAGAACAUGAGGAUCACCCAUGUAGGCU
Turning to B18, the Kd in data set [4] is 188 nM.
